In patent US20220226463A1 (NATIONAL CHENG KUNG UNIVERSITY, published 2022):

Molecular target: T1, TRAF6 (UniProt Q9Y4K3 1-522)
T1 sequence: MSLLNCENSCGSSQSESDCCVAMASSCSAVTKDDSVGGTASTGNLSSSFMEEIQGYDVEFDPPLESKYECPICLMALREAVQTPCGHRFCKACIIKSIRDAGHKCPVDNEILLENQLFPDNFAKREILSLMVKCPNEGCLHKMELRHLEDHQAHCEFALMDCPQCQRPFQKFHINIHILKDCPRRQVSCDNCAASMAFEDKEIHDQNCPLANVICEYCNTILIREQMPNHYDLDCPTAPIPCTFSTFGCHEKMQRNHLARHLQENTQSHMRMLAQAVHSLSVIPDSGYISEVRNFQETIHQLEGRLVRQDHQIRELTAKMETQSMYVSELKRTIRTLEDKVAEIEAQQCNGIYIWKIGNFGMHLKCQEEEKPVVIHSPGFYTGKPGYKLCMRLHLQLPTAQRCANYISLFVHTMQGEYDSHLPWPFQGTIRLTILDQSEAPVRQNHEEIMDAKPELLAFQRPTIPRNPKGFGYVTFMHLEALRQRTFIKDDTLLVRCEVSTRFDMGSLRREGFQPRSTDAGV
Assay: co-immunoprecipitation and western blot, HEK293T cells (FIG. 3A)

B1: wild-type NS1 (NS1-Myc/His), nonstructural protein 1 of influenza virus strain A/PR/8 (PR8), C-terminal Myc-His tag (other)
chain: MDPNTVSSFQVDCFLWHVRKRVADQELGDAPFLDRLRRDQKSLRGRGSTLGLDIETATRAGKQIVERILKEESDEALKMTMASVPASRYLTDMTLEEMSRDWSMLIPKQKVAGPLCIRMDQAIMDKNIILKANFSVIFDRLETLILLRAFTEEGAIVGEISPLPSLPGHTAEDVKNAVGVLIGGLEWNDNTVRVSETLQRFAWRSSNENGRPPLTPKQKREMAGTIRSEV
- binding result: no binding
